From paper PMC7970865
Several values for one entry are separate records, joined by “and”; a condition that tells them apart may be missing. Equal entries are not always repeated.

Experiments:
[1] = biological target: nearly full-length recombinant FL-CSP (Plasmodium falciparum) (UniProt Q7K740); experiment: BLI; Octet RED96; biotinylated FL-CSP or biotinylated NANPx6 on streptavidin biosensors, Fab in solution, kinetics buffer; global fit to 1:1 Langmuir model
[2] = biological target: nearly full-length recombinant FL-CSP (Plasmodium falciparum) (UniProt Q7K740); experiment: ELISA
[3] = biological target: nearly full-length recombinant FL-CSP (Plasmodium falciparum) (UniProt Q7K740); experiment: BLI; Octet RED384; FL-CSP amine-coupled to AR2G biosensors, bivalent mAb in solution, 1x kinetics buffer, 25 °C; 1:1 Langmuir model; mean of quadruplicate measurements
[4] = biological target: nearly full-length recombinant P. falciparum circumsporozoite protein (FL-CSP) (Plasmodium falciparum) (UniProt Q7K740); experiment: BLI

Fab CIS43
Kd [1]: 2 nM
koff [1]: 4.8e-05 s⁻¹
kon [1]: 28000 M⁻¹ s⁻¹

mAb CIS43 (antibody)
ng/ml mAb needed for OD = 1 [2]: < 6 ng/mL
Kd [3]: 0.46 nM
koff [3]: 0.000692 s⁻¹
kon [3]: 1.5e+06 M⁻¹ s⁻¹

mAb CIS43 (intact human IgG1) (antibody)
kon [4]: 1.4e+06 1/(M s) (2×) and 1.7e+06 1/(M s) and 1.6e+06 1/(M s)
